Experimental data: the supplement of paper PMC10126150
± gives the standard deviation of the averaged measurements.

Tested on: ATP
Experiment: switch fluorescence ratio, 500 uM ATP over buffer (Cy3 cluster intensity, sum of 5 cycles each) (fold (ratio)); higher = stronger signal-on switching upon ATP binding; sequences stand for … in TCGTCGGCAGCGTCAGATGTGTATAAGAGACAGTTTTTTTTTTTTTTTTTTTTTTTTT…TC
Details: aptamer strand: ATP DNA aptamer (quencher-CACCTGGGGGAGTATTGCGGAGGAAGG + anchor), 100 nM annealed; ATP concentration: 500 uM
Summary of the method: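 Between each of five buffer/ATP cycles, the flow-cell was stripped with NaOH and re-annealed. Each cycle imaged Cy3-labelled switching-strand clusters, annealed to 100 nM quencher-labelled ATP aptamer on a modified Illumina MiSeq flow-cell, first in selection buffer and then after 15 min with 500 uM ATP at 22 °C. The fluorescence ratio is summed target-cycle over summed buffer-cycle Cy3 intensity per cluster, averaged per switch-domain sequence, with clusters outside 100-1000 RFU excluded.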
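Note: ATP exposure 15 min at 22 °C before imaging.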

**Q.** AACAGGGTGG was tested. Which switch fluorescence ratio did it give?
**A.** 1.016 ± 0.0021

**Q.** Which switch fluorescence ratio does the source give for GGGGGCTAGG here?
**A.** 1.02 ± 0.02

**Q.** With GAATTGAGAA as the sequence, how does the switch fluorescence ratio read?
**A.** 0.972 ± 0.035

**Q.** Which switch fluorescence ratio does the source give for GAAGGTTTGG here?
**A.** 0.981 ± 0.03

**Q.** Which switch fluorescence ratio does the source give for ATCCGGTTAT here?
**A.** 1.03 ± 0.016

**Q.** How did the switch fluorescence ratio turn out when GCCCTAGTGT was run?
**A.** 1.13 ± 0.024

**Q.** For AACGCGACAT, which switch fluorescence ratio is on record?
**A.** 1.29 ± 0.022

**Q.** AAGGCGCGGC was tested. Which switch fluorescence ratio did it give?
**A.** 0.9694 ± 0.0088

**Q.** Which switch fluorescence ratio does the source give for AGGCGACGTT here?
**A.** 0.9931 ± 0.0069

**Q.** How did the switch fluorescence ratio turn out when CAAACTAGC was run?
**A.** 0.99 ± 0.003

**Q.** Which switch fluorescence ratio does the source give for AGCGGGGAGG here?
**A.** 1.03 ± 0.035

**Q.** For TAAATTAATC, which switch fluorescence ratio is on record?
**A.** 1.01 ± 0.018

**Q.** For GGTATACGTA, which switch fluorescence ratio is on record?
**A.** 0.935 ± 0.071

**Q.** With AGGGGTAAGT as the sequence, how does the switch fluorescence ratio read?
**A.** 0.981 ± 0.011

**Q.** For AAATCATTAT, which switch fluorescence ratio is on record?
**A.** 1.01 ± 0.019

**Q.** For AGTTGGGTGG, which switch fluorescence ratio is on record?
**A.** 1.04 ± 0.026

**Q.** With TTTTGGGATC as the sequence, how does the switch fluorescence ratio read?
**A.** 0.996 ± 0.016

**Q.** Which switch fluorescence ratio does the source give for TTGGTTACAT here?
**A.** 0.994 ± 0.013

**Q.** Which switch fluorescence ratio does the source give for CCCGGAGTGT here?
**A.** 1.732 ± 0.0079

**Q.** ATAGAACTTT was tested. Which switch fluorescence ratio did it give?
**A.** 0.9968 ± 0.0095

**Q.** For GGGAGTTTGG, which switch fluorescence ratio is on record?
**A.** 0.975 ± 0.027

**Q.** AGGGGATTCA was tested. Which switch fluorescence ratio did it give?
**A.** 1.02 ± 0.02

**Q.** With TGAATCTTGG as the sequence, how does the switch fluorescence ratio read?
**A.** 1.02 ± 0.044

**Q.** With AGAAAAATAC as the sequence, how does the switch fluorescence ratio read?
**A.** 1.49 ± 0.67

**Q.** For AAAGGGCCTT, which switch fluorescence ratio is on record?
**A.** 1.003 ± 0.0024

**Q.** Which switch fluorescence ratio does the source give for TTGTTTCTCT here?
**A.** 0.959 ± 0.016

**Q.** With GCTAAAACCT as the sequence, how does the switch fluorescence ratio read?
**A.** 2.25 ± 0.23

**Q.** For CGCTGTATCG, which switch fluorescence ratio is on record?
**A.** 0.996 ± 0.043

**Q.** For TTCGGCCACG, which switch fluorescence ratio is on record?
**A.** 1.01 ± 0.036

**Q.** How did the switch fluorescence ratio turn out when CGTTCGGGGT was run?
**A.** 0.981 ± 0.012

**Q.** TCACTGGGTA was tested. Which switch fluorescence ratio did it give?
**A.** 0.995 ± 0.014

**Q.** GTGTTATTAG was tested. Which switch fluorescence ratio did it give?
**A.** 1.005 ± 0.007

**Q.** With ATCGACGGG as the sequence, how does the switch fluorescence ratio read?
**A.** 1.008 ± 0.0058

**Q.** How did the switch fluorescence ratio turn out when TTCGGACGT was run?
**A.** 1.02 ± 0.013

**Q.** For ATAGATTCTC, which switch fluorescence ratio is on record?
**A.** 0.977 ± 0.025

**Q.** Which switch fluorescence ratio does the source give for GGGGGCAGAG here?
**A.** 0.991 ± 0.035

**Q.** How did the switch fluorescence ratio turn out when GGTGATACGC was run?
**A.** 1.001 ± 0.0035

**Q.** Which switch fluorescence ratio does the source give for ATGTAGGTGA here?
**A.** 1.03 ± 0.017

**Q.** How did the switch fluorescence ratio turn out when CCGGTTAGGG was run?
**A.** 0.991 ± 0.029

**Q.** For TGGAATACG, which switch fluorescence ratio is on record?
**A.** 1.35 ± 0.036

**Q.** Which switch fluorescence ratio does the source give for TGTTATAGG here?
**A.** 1.001 ± 0.0098

**Q.** Which switch fluorescence ratio does the source give for CACAGGGCTG here?
**A.** 1.026 ± 0.0059

**Q.** With AAGCCTAATG as the sequence, how does the switch fluorescence ratio read?
**A.** 0.996 ± 0.017

**Q.** How did the switch fluorescence ratio turn out when GACGCAGGTG was run?
**A.** 2.5 ± 0.24

**Q.** With AAAATCGGGT as the sequence, how does the switch fluorescence ratio read?
**A.** 1.03 ± 0.025

**Q.** Which switch fluorescence ratio does the source give for TTTTTTAGCA here?
**A.** 1.02 ± 0.023

**Q.** How did the switch fluorescence ratio turn out when TTTTGTTATG was run?
**A.** 0.9903 ± 0.0085

**Q.** How did the switch fluorescence ratio turn out when ATGTATAGCC was run?
**A.** 0.995 ± 0.036

**Q.** GTTTAAGTTT was tested. Which switch fluorescence ratio did it give?
**A.** 0.996 ± 0.022

**Q.** Which switch fluorescence ratio does the source give for TAGAGGTTGG here?
**A.** 0.981 ± 0.042

**Q.** With CGGTTAAAAA as the sequence, how does the switch fluorescence ratio read?
**A.** 0.982 ± 0.066

**Q.** Which switch fluorescence ratio does the source give for TTTTTTACCT here?
**A.** 1.2 ± 0.015

**Q.** How did the switch fluorescence ratio turn out when TGTTGTGAGG was run?
**A.** 0.997 ± 0.025

**Q.** Which switch fluorescence ratio does the source give for TCATGGCACC here?
**A.** 1.05 ± 0.025

**Q.** For TTATAATTTC, which switch fluorescence ratio is on record?
**A.** 1.009 ± 0.0023

**Q.** For CATGGCCAGG, which switch fluorescence ratio is on record?
**A.** 1.06 ± 0.079

**Q.** Which switch fluorescence ratio does the source give for TATTTAGTTT here?
**A.** 1.01 ± 0.023

**Q.** CGTTTACCTT was tested. Which switch fluorescence ratio did it give?
**A.** 1.0086 ± 0.001

**Q.** For AGGGAAAAGG, which switch fluorescence ratio is on record?
**A.** 1.02 ± 0.031

**Q.** With GTAAGACTAA as the sequence, how does the switch fluorescence ratio read?
**A.** 0.997 ± 0.011

**Q.** With TTTTGAGCGG as the sequence, how does the switch fluorescence ratio read?
**A.** 1.04 ± 0.015

**Q.** For GTATATAAGT, which switch fluorescence ratio is on record?
**A.** 0.98 ± 0.013

**Q.** With CGAGGGGTTC as the sequence, how does the switch fluorescence ratio read?
**A.** 0.9908 ± 0.0044

**Q.** How did the switch fluorescence ratio turn out when TATTATGGGG was run?
**A.** 1.02 ± 0.034

**Q.** How did the switch fluorescence ratio turn out when CAACTGCACG was run?
**A.** 1.22 ± 0.079

**Q.** How did the switch fluorescence ratio turn out when AGCTTCGGTC was run?
**A.** 0.953 ± 0.0098

**Q.** For AGGTCCTGTG, which switch fluorescence ratio is on record?
**A.** 0.998 ± 0.016

**Q.** With GCTCAATCTA as the sequence, how does the switch fluorescence ratio read?
**A.** 1.01 ± 0.006

**Q.** How did the switch fluorescence ratio turn out when TATATCTGAC was run?
**A.** 1.16 ± 0.074

**Q.** Which switch fluorescence ratio does the source give for TGGTTATTGT here?
**A.** 0.974 ± 0.032

**Q.** How did the switch fluorescence ratio turn out when CGATTAGGGA was run?
**A.** 1 ± 0.028

**Q.** CGGTATTCTT was tested. Which switch fluorescence ratio did it give?
**A.** 0.9883 ± 0.0068

**Q.** With GTGGGGTTAT as the sequence, how does the switch fluorescence ratio read?
**A.** 1 ± 0.013

**Q.** How did the switch fluorescence ratio turn out when GGTGCATGGG was run?
**A.** 1.01 ± 0.034

**Q.** How did the switch fluorescence ratio turn out when TCCCGGGAAT was run?
**A.** 0.987 ± 0.031

**Q.** GTATGGCGGG was tested. Which switch fluorescence ratio did it give?
**A.** 1.008 ± 0.0032

**Q.** For TTTCGGGGGT, which switch fluorescence ratio is on record?
**A.** 1.07 ± 0.25
